Among the data in a protein production outcome set (Wang et al. 2014) are protein production values, retold here.

This data set in a line: label from the status in PepcDB records.
As for “MKTVNIGLIGAGRIGQLHASNIISSPYMELKAVSDVQLDHLKGTEIERSVEIMTTNPDELFSNRDIDAIFICSSTDTHAAFIKAAALAGKHIFCEKPISFHVTETKGALNIVNEAGVKFQVGFNRRYDKHFRRVQECVQAGAIGAPHIIRVSSRDPEAPPLSYVERSGGMFMDMTIHDFDMVRYLSGSEVTEVSVKAANLVDSRIGEVGDVDTAIITLMLENGAIAVIDNSRQAAYGYDQRVEVFGSLGSVSADNERKTNVQISTKDTVTLDLPKHFFLDRYEQAYKDEVAEFATAILEDQPLRCTGEDGYKAELLALAAKQSWLENRPVAVKDVEVLEEHAKSE”, the protein production entry was “failed”.

“MKVFFNKIPLALSSLVLALFSLSNQISQYTLFSQGIWLIAVFGFFLVLGRPIIGYRQTQEDLHNPVIASAFPSFFMAAFLFAGRLPLAQADLSIAWIVVLIGLYIAYIIFFSLRFLRPLVLEQVYPSWFVVYVGPAINLVTIPDSIPNSTKALILGLTGLATLALFPLIFWRMRRLAIPQPVLPILAILAAPLALLITSSIKSGQKPDTILLVGLLIFSQLFFFFALGLFTRLVNKGFVPLFAAFSFPLVNSINAFKAATTSLGLVNPATQLVYKVEFVFVLVIMTYLLYHFLKLLYKALIQALNTKKQAGSV”: the protein production result is reported as “failed”.

“MKVFIIGAAGGIGNRLSSLLHARGDAVSGMHRNLEQASKITDTGATAVLGDLIHNSTEELAELFRGHDAIVFSAGAHGTGQENTTLIDGAGLRKAADAASAANVSRFILVSAFPESSRGENTTENFEHYMKVKKSADVYLSHTDLDWVIVRPGVLQDEAGDGLVTAGLAINYGNVARDNVAAFIDEALHQPQLSKIIVELTDGSTPVAEAVERLIKLEHHHHHH”: the protein production entry is reported as “not failed”.

For the sequence “MKVGIDAGGTLIKIVQESQQGRSYETKLTTNISEVIAWLNANTFESISLTGGNAGVIAENLNVDATIFVEFDASSKGLGMLLKEQGHHIDEYIFANVGTGTSLHYFDGKQQRRVGGVGTGGGMIQGLGYLLSQITDYEALTNLAQSGDRDTIDLKVKHIYKDTEPPIPGELTAANFGNVLHNLDVDFSPANKLASVVGVVGEVITTMAITVARENKTENVVYIGSSFNNNPLLREVIEDYTVLRGFKPYYIENGAFSGALGAIYLN”, the protein production result is listed as “failed”.

“MKVKKWVTQDFPMVEESATVRECLHRMRQYQTNECIVKDREGHFRGVVNKEDLLDLDLDSSVFNKVSLPDFFVHEEDNITHALLLFLEHQEPYLPVVDEEMRLKGAVSLHDFLEALIEALAMDVPGIRFSVLLEDKPGELRKVVDALALSNINILSVITTRSGDGKREVLIKVDAVDEGTLIKLFESLGIKIESIEKEEGF”: the protein production entry is given as “not failed”.

Regarding “MKVLKFGGTSVGDAERIRSVARLITSVKGRKIIVLSAMAGTTNSLVEIASHLVKRNVAQAKEVVQVLREKYHREINALYKRPDTLSAAKKAVDSLLDSLGHMCDVEGFTLFEEKRVLIL”, the protein production result is “failed”.

“MKVQATFATLIALAAYFPAANAWKDCIIQRYKDGDVNNIYTANRNEEITIEEYKVFVNEACHPYPVILPDRSVLSGDFTSAYADDDESC”: the protein production result is “not failed”.

Consider “MKVQITNSRTEEILKVQANNENDEVSKATPGEVEESLRLIGDLKFFLATAPVNWQENQIIRRYYLNSGQGFVSCVFWNNLYYITGTDIVKCCLYRMQKFGREVVQKKKFEEGIFSDLRNLKCGIDATLEQPKSEFLSFLFRNMCLKTQKKQKVFFWFSVAHDKLFADALERDLKRESLNQPSTTKPVNEPALSFSYDSSSDKPLYDQLLQHLDSRRPSSTTKSDNSPPKLESENFKDNELVTVTNQPLLGVGLMDDDAPESPSQINDFIPQKLIIEPNTLELNGLTEETPHDLPKNTAKGRDEEDFPLDYFPVSVEYPTEENAFDPFPPQAFTPAAPSMPISYDNVNERDSMPVNSLLNRYPYQLSVAPTFPVPPSSSRQHFMTNRDFYSSNNNKEKLVSPSDPTSYMKYDEPVMDFDESRPNENCTNAKSHNSGQQTKQHQLYSNNFQQSYPNGMVPGYYPKMPYNPMGGDPLLDQAFYGADDFFFPPEGCDNNMLYPQTATSWNVLPPQAMQPAPTYVGRPYTPNYRSTPGSAMFPYMQSSNSMQWNTAVSPYSSRAPSTTAKNYPPSTFYSQNINQYPRRRTVGMKSSQGNVPTGNKQSVGKSAKISKPLHIKTSAYQKQYKINLETKARPSAGDEDSAHPDKNKEISMPTPDSNTLVVQSEEGGAHSLEVDTNRRSDKNLPDAT”, for which the protein production entry was “failed”.
